Sequences and labels used below:
T1: Vps4^E233Q (S. cerevisiae, UniProt P52917 1-437, E233Q)
T1 sequence (looked up): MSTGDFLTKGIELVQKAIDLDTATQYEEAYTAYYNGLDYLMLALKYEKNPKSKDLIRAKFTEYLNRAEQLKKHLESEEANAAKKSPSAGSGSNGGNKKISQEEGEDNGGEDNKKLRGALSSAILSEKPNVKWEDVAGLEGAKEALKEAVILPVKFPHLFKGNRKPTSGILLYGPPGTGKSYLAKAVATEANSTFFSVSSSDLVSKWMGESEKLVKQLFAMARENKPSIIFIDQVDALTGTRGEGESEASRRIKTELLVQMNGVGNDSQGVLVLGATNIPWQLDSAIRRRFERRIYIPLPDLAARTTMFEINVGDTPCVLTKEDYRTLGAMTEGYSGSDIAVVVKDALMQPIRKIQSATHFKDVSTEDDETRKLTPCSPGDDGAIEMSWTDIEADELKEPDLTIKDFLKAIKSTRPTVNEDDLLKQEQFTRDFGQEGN

B1: GST-Did2 (natural protein, S. cerevisiae, UniProt P69771 1-204, looked up)
chain: MSRNSAAGLENTLFQLKFTSKQLQKQANKASKEEKQETNKLKRALNENEDISRIYASNAIRKKNERLQLLKLASRVDSVASRVQTAVTMRQVSASMGQVCKGMDKALQNMNLQQITMIMDKFEQQFEDLDTSVNVYEDMGVNSDAMLVDNDKVDELMSKVADENGMELKQSAKLDNVPEIKAKEVNVDDEKEDKLAQRLRALRG
B2: GST-CT(Did2) (domain or fragment, S. cerevisiae, UniProt P69771 113-204, looked up)
chain: QQITMIMDKFEQQFEDLDTSVNVYEDMGVNSDAMLVDNDKVDELMSKVADENGMELKQSAKLDNVPEIKAKEVNVDDEKEDKLAQRLRALRG
B3: GST-Vps20(C) (domain or fragment, S. cerevisiae, UniProt Q04272 101-221, looked up)
chain: QFINGLKNGNEILKKLNKEFSNVDELMDDVQDQIAYQNEINETLSRSLVGTSNYEDDLDKELDALESELNPEKMNNAKVANMPSTEGLPSLPQGEQTEQKEREEFATEERSDTKEPLALLS
B4: Ist1 (natural protein, S. cerevisiae, UniProt P53843 1-298, looked up)
chain: MAPSMIPFTIKLKTCLKMCIQRLRYAQEKQQAIAKQSRRQVAQLLLTNKEQKAHYRVETLIHDDIHIELLEILELYCELLLARVQVINDISTEEQLVKEHMDDGINEAIRSLIYAILFVDEVKELSQLKDLMAWKINVEFVNGVIADHIDVPEKIIKKCSPSVPKEELVDLYLKEIAKTYDVPYSKLENSLSSSSSNISSDFSDPSGDIEDNDEEKPILALDNDDNDNADAKHPITVKKPRQNSENIKNELKIPKDIKKEVIEKKQSEKKTTKRKTKKEQENDELDELKKRFDALRRK

Assay in all cases: pull-down
The experiment “Ist1” deals with B4.
Experiment [1] addresses T1, Vps4^E233Q.
Experiment [2] has as its target T1, Vps4^E233Q. The source holds these as a separate data set.

Read-outs that look alike come from different tables or passages of the source.

As to B1, the binding result with Ist1 was “binds”. Still for that read-out and setting: the result for B2 reads “binds”. Take B3: the binding result with Vps4^E233Q [1] is “binds”. Consider B4, for which, in the experiment with Vps4^E233Q [2], the binding result is on record as “binds”.
